Data set [1] concerns the target T1, c-Met Fc fusion (UniProt P08581 P08581:25-932). In words: filter; 11±6 nM, n=6, dot blot; FIG. 2 legend gives 57 nM; heading cites SEQ ID NO 54 but CLN0004 is SEQ 53. To be noted: tags: Fc-His fusion; chain copies: 2.
The target in data set [2] is T1, c-Met Fc fusion. In words: filter; dot blot. To be noted: tags: Fc-His fusion; chain copies: 2.
In data set [3] the target is T2, CD16α (FcγRIIIa) V158 allotype, CD16α-6His (UniProt P08637 P08637:17-208). In words: filter; dot blot; allotype not specified for this assay. As to conditions: tags: 6His.
T2 sequence (P08637 17-208, one chain of several): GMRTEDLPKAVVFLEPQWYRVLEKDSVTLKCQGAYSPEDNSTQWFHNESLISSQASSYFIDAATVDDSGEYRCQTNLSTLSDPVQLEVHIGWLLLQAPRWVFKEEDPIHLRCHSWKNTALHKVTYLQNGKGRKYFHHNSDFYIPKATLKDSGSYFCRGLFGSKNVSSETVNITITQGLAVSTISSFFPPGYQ
Data set [4] concerns the target T1, c-Met Fc fusion. The data set is described as follows: filter; 91±40 pM, n=3, dot blot; heading cites SEQ ID NO 53 but CLN0003 is SEQ 52. To be noted: tags: Fc-His fusion; chain copies: 2.
Data set [5] concerns the target T2, CD16α (FcγRIIIa) V158 allotype, …. In words: filter; dot blot. As to conditions: tags: 6His.
The next data set deals with CD16β (FcγRIIIb) (UniProt O75015 O75015:17-200). The data set is described as follows: filter; dot blot. As to conditions: tags: 10His.
Sequence of CD16β (FcγRIIIb) (O75015 17-200, one chain of several): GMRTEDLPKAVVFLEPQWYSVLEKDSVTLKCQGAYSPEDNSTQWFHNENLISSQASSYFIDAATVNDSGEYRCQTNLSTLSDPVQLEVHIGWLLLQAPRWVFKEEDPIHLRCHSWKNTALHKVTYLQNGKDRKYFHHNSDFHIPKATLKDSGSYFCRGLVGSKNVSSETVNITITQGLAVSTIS
Data set [6] concerns the target T1, c-Met Fc fusion. In words: filter; nearly similar affinity as full length. As to conditions: tags: Fc-His fusion; chain copies: 2.
Data set [7] concerns the target T1, c-Met Fc fusion. The data set is described as follows: filter; c-Met aptamer at 3' end performed best; dot blot. To be noted: tags: Fc-His fusion; chain copies: 2.
Data set [8] has as its target T2, CD16α (FcγRIIIa) V158 allotype, …. In words: filter; 45±28 nM, n=10, dot blot. To be noted: tags: 6His.
For data set [9], the target named is T1, c-Met Fc fusion. The data set is described as follows: filter; picomolar Kd, number only in figure. To be noted: tags: Fc-His fusion; chain copies: 2.
In data set [10] the target is T2, CD16α (FcγRIIIa) V158 allotype, …. The data set is described as follows: filter; 38±26 nM, n=4, dot blot; broad unspecific cell binding in FACS. As to conditions: tags: 6His.
Data set [11] deals with T1, c-Met Fc fusion. The data set is described as follows: filter; complete loss of binding, dot blot. To be noted: tags: Fc-His fusion; chain copies: 2.
Data set [12] deals with T1, c-Met Fc fusion. The data set is described as follows: filter; picomolar Kd, number only in figure; EMSA also shows binding. To be noted: tags: Fc-His fusion; chain copies: 2.
Data set [13] concerns the target T1, c-Met Fc fusion. The data set is described as follows: filter; dot blot; picomolar. As to conditions: tags: Fc-His fusion; chain copies: 2.

T1 sequence (P08581 25-932, one chain of several): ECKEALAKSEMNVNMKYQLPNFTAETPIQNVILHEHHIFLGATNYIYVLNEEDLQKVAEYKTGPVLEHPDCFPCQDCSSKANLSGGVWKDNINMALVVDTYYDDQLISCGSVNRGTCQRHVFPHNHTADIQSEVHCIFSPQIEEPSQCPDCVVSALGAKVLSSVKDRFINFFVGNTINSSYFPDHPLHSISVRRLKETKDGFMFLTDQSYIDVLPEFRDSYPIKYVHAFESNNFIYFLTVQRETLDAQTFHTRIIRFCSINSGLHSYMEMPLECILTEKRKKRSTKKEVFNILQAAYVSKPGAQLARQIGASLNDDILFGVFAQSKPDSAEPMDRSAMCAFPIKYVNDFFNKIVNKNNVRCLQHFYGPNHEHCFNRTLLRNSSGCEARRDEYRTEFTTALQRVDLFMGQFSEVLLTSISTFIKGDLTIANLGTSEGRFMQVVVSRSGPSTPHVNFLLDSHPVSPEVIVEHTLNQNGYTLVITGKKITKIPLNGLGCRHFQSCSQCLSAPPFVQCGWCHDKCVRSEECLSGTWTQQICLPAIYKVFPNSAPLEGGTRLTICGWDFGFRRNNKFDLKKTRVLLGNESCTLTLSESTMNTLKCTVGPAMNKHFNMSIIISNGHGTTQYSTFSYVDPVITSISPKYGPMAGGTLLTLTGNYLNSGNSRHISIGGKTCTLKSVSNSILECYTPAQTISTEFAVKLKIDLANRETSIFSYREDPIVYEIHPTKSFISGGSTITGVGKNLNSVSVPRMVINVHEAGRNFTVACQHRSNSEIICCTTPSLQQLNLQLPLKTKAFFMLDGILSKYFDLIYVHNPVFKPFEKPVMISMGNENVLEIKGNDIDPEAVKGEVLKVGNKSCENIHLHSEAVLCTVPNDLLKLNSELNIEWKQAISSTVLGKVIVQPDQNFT

B1: CLN0004 (ssDNA)
DNA: GGAGGGAAAAGTTATCAGGCGAGTGCGTAATGGTACGATTTGGGAAGTGGCTTGGGGTGGGATTAGTTTTGGAGTACTCGCTCC
B1 displayed a Kd in the data set with c-Met Fc fusion [1] of 11 nM.

B2: bsA31 (ssDNA)
DNA: CCACTGCGGGGGTCTATACGTGAGGAAGAAGTGGGCAGGTCAAAAAAAAAAAAAAAGAGTGCGTAATGGTACGATTTGGGAAGTGGCTTGGGGTGGGATTAGTTTTGGAGTACTCGCTCC
For B2, the Kd with c-Met Fc fusion [2] was determined as 92 nM; in [3], 24 nM.

B3: CLN0003 (ssDNA)
DNA: GGAGGGAAAAGTTATCAGGCTGGATGGTAGCTCGGTCGGGGTGGGTGGGTTGGCAAGTCTGATTAGTTTTGGAGTACTCGCTCC
Take B3: the dissociation constant (Kd) in the data set with c-Met Fc fusion [4] turned out to be 0.091 nM.

B4: CLN0123 (ssDNA)
DNA: GGAGGGAAAAGTTATCAGGCAGAGGGGAGGGTCGGGTATCGGCGTGTTCGGGGGATCTGCGATTAGTTTTGGAGTACTCGCTCC
The molecule B4 showed a Kd in data set [5] of 231 nM. For the same molecule, in the data set with CD16β (FcγRIIIb), the binding result is “no binding”.

B5: -20CLN0004-23 (41mer, MS2, with G61) (ssDNA)
DNA: GAGTGCGTAATGGTACGATTTGGGAAGTGGCTTGGGGTGGG
With B5, in the data set with c-Met Fc fusion [6], the binding result is on record as “binds”.

B6: -19CLN0020-31 (34mer, MS3) (ssDNA)
DNA: CCACTGCGGGGGTCTATACGTGAGGAAGAAGTGG
The molecule B6 gave a Kd in data set [3] of 47 nM.

B7: bsA12 (ssDNA)
DNA: CCACTGCGGGGGTCTATACGTGAGGAAGAAGTGGGCAGGTCGATTAGTTTTGGAGTACTCGCTCCGGAGGGAAAAGTTATCAGGCGAGTGCGTAATGGTACGATTTGGGAAGTGGCTTGGGGTGGGATTAGTTTTGGAGTACTC
On to B7, for which the affinity with c-Met Fc fusion [2], expressed as Kd, was 18 nM.

B8: bsA18 (ssDNA)
DNA: CCACTGCGGGGGTCTATACGTGAGGAAGAAGTGGGCAGGTCATCAGGCGAGTGCGTAATGGTACGATTTGGGAAGTGGCTTGGGGTGGGATTAGTTTTGGAGTACTC
For B8, in the data set with c-Met Fc fusion [7], the binding result is “binds”.

B9: CLN0020 (ssDNA)
DNA: GGAGGGAAAAGTTATCAGGCCACTGCGGGGGTCTATACGTGAGGAAGAAGTGGGCAGGTCGATTAGTTTTGGAGTACTCGCTCC
As for B9, in the data set with CD16β (FcγRIIIb), the binding result was “no binding”. The molecule also displayed a Kd in data set [8] of 45 nM.

B10: bsA16 (ssDNA)
DNA: GAGTGCGTAATGGTACGATTTGGGAAGTGGCTTGGGGTGGGATTAGTTTTGGAGTACTCGCTCCGGAGGGAAAAGTTATCAGGCAGAGGGGAGGGTCGGGTATCGGCGTGTTCGGGGGATCTGCGATTAGTTTTGGAGTACTCGCTCC
Molecule B10 gave a Kd in data set [3] of 178 nM.

B11: bsA10 (ssDNA)
DNA: GGAGGGAAAAGTTATCAGGCTGGATGGTAGCTCGGTCGGGGTGGGTGGGTTGGCAAGTCTGATTAGTTTTGGAGTACTCGCTCCGGAGGGAAAAGTTATCAGGCCACTGCGGGGGTCTATACGTGAGGAAGAAGTGGGCAGGTCGATTAGTTTTGGAGTACTCGCTCC
For B11, the binding result with c-Met Fc fusion [9] was “binds”.

B12: CLN0018 (ssDNA)
DNA: GGAGGGAAAAGTTATCAGGCATCACGTGGTGGGCAAATAACCGGTTGGGGTGGGTCGAGGGATTAGTTTTGGAGTACTCGCTCC
As for B12, the binding result in the data set with CD16β (FcγRIIIb) is recorded as “no binding”. Besides, the Kd in [10] was found to be 38 nM.

B13: bsA9 (ssDNA)
DNA: GGAGGGAAAAGTTATCAGGCCACTGCGGGGGTCTATACGTGAGGAAGAAGTGGGCAGGTCGATTAGTTTTGGAGTACTCGCTCCGGAGGGAAAAGTTATCAGGCTGGATGGTAGCTCGGTCGGGGTGGGTGGGTTGGCAAGTCTGATTAGTTTTGGAGTACTCGCTCC
Consider B13, for which the binding result with c-Met Fc fusion [9] was “binds”.

B14: bsA13 (ssDNA)
DNA: GAGTGCGTAATGGTACGATTTGGGAAGTGGCTTGGGGTGGGATTAGTTTTGGAGTACTCGCTCCGGAGGGAAAAGTTATCAGGCCACTGCGGGGGTCTATACGTGAGGAAGAAGTGG
Molecule B14 yielded a Kd with c-Met Fc fusion [2] of 18 nM.

B15: bsA15 (ssDNA)
DNA: GGAGGGAAAAGTTATCAGGCAGAGGGGAGGGTCGGGTATCGGCGTGTTCGGGGGATCTGCGATTAGTTTTGGAGTACTCGCTCCGGAGGGAAAAGTTATCAGGCTGGATGGTAGCTCGGTCGGGGTGGGTGGGTTGGCAAGTCTGATTAGTTTTGGAGTACTCGCTCC
Regarding B15, in data set [3], binding was put at a Kd of 174 nM.

B16: CLN0004 without flanking sequences (ssDNA)
DNA: GAGTGCGTAATGGTACGATTTGGGAAGTGGCTTGGGGTGG
Take B16: the binding result with c-Met Fc fusion [11] is “no binding”.

B17: bsA19 (ssDNA)
DNA: CCACTGCGGGGGTCTATACGTGAGGAAGAAGTGGGCAGGTCAAAAAAAAAAAAAAAGGAGGGAAAAGTTATCAGGCTGGATGGTAGCTCGGTCGGGGTGGGTGGGTTGGCAAGTCT
Turning to B17, the binding result in the data set with c-Met Fc fusion [7] is reported as “binds”.

B18: bsA11 (ssDNA)
DNA: CCACTGCGGGGGTCTATACGTGAGGAAGAAGTGGGCAGGTCGATTAGTTTTGGAGTACTCGCTCCGGAGGGAAAAGTTATCAGGCTGGATGGTAGCTCGGTCGGGGTGGGTGGGTTGGCAAGTCTGATTAGTTTTGGAGTACTCGCTCC
On to B18, for which, in the data set with c-Met Fc fusion [12], the binding result is “binds”.

B19: bsA20 (ssDNA)
DNA: CCACTGCGGGGGTCTATACGTGAGGAAGAAGTGGGCAGGTCGGAGGGAAAAGTTATCAGGCTGGATGGTAGCTCGGTCGGGGTGGGTGGGTTGGCAAGTCT
For B19, the Kd in the data set with c-Met Fc fusion [2] came to 5 nM.

B20: bsA3 (ssDNA)
DNA: CCACTGCGGGGGTCTATACGTGAGGAAGAAGTGGGCAGGTCAAAAAAAAAAAAAAAGAGTGCGTAATGGTACGATTTGGGAAGTGGCTTGGGGTGGG
Take B20: in the data set with c-Met Fc fusion [7], the binding result is on record as “binds”.

B21: bsA21 (ssDNA)
DNA: CCACTGCGGGGGTCTATACGTGAGGAAGAAGTGGGCAGGTCAAAAAAAAAAAAAAAGGAGGGAAAAGTTATCAGGCTGGATGGTAGCTCGGTCGGGGTGGGTGGGTTGGCAAGTCTGATTAGTTTTGGAGTACTCGCTCC
For B21, the binding result with c-Met Fc fusion [9] is reported as “binds”.

B22: bsA17 (ssDNA)
DNA: CCACTGCGGGGGTCTATACGTGAGGAAGAAGTGGGCAGGTCGGAGGGAAAAGTTATCAGGCTGGATGGTAGCTCGGTCGGGGTGGGTGGGTTGGCAAGTCTGATTAGTTTTGGAGTACTCGCTCC
Take B22: the results for the Kd (in the data set with c-Met Fc fusion [13]; in [3]) were 0.352 nM and 19 nM, respectively.

B23: bsA22 (ssDNA)
DNA: CCACTGCGGGGGTCTATACGTGAGGAAGAAGTGGAAAAAAAAAAAAAAAGGAGGGAAAAGTTATCAGGCTGGATGGTAGCTCGGTCGGGGTGGGTGGGTTGGCAAGTCTGATTAGTTTTGGAGTACTCGCTCC
For the molecule B23, the binding result in the data set with c-Met Fc fusion [12] is “binds”.

These data come from US20140039042, “BISPECIFIC APTAMERS MEDIATING TUMOUR CELL LYSIS” (MERCK PATENT GMBH, published 2014).
